Data as given in patent US20200121803A1 (published 2020).

T1: human CD98 on the cell surface (human)
T1 chain: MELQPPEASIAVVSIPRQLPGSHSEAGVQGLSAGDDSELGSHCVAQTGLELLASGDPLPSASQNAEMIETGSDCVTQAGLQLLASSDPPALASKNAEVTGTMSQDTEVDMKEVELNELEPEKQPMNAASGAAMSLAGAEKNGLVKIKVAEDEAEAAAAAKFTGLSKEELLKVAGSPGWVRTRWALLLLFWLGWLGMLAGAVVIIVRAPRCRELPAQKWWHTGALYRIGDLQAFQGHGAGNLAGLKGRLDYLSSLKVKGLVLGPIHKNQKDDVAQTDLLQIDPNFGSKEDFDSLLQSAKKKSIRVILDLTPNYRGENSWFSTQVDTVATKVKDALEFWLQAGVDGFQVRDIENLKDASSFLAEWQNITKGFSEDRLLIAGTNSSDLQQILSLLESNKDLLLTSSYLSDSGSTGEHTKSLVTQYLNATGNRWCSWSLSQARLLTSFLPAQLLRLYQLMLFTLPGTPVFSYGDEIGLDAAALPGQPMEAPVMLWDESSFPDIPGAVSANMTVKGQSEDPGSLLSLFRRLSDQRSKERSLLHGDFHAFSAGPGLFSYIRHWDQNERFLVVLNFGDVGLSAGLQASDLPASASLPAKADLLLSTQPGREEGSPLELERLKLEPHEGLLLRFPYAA

T2: human CD98 on human cancer cell lines (EBC-1, H2170, Molt-4) (human)
T2 chain: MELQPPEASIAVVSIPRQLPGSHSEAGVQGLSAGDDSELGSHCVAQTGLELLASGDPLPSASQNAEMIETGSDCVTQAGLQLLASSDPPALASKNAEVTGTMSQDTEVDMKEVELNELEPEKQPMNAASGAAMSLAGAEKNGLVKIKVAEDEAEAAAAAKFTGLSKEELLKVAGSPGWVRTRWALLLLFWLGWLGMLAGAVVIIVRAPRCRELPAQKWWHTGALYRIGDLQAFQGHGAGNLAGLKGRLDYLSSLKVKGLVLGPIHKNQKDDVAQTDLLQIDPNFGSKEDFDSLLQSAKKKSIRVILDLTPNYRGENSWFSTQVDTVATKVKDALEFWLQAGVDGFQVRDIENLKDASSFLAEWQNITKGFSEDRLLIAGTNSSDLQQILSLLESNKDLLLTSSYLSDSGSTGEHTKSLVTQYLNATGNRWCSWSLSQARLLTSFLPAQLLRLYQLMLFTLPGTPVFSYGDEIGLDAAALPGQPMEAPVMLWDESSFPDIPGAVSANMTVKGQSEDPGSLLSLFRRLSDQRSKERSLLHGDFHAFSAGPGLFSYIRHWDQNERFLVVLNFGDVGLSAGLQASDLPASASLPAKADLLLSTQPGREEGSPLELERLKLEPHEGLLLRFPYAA


What was measured:
[1] = target: T1, human CD98 on the cell surface; assay: cell-based or functional assay
[2] = target: T2, human CD98 on human cancer cell lines …; assay: cell-based or functional assay

Row | ADC potency, IC50 (nM), H146 (SCLC) growth inhibition [1] [nM] | ADC potency, IC50 (nM), H2170 (NSCLC) growth inhibition [1] [nM] | ADC potency, IC50 (nM), MOLT4 (leukemia) growth inhibition [1] [nM] | ADC potency, IC50 (nM), EBC (NSCLC), growth inhibition (CellTiter-Glo) [2] [nM] | ADC potency, IC50 (nM), H2170 (NSCLC), growth inhibition (CellTiter-Glo) [2] [nM] | ADC potency, IC50 (nM), MOLT4 (leukemia), growth inhibition (CellTiter-Glo) [2] [nM] | Binder
1 | 0.194 | 0.137 | 0.048 | – | – | – | ChAb15-CZ (other, synthon CZ on reduced interchain Cys of the constant regions (sites not numbered)) VH: EVQLVESGGGLVQPGRSLKLSCAASGFTFSDYTMAWVRQAPKKGLEWVATIIYDGRGTYYRDSVKGRFTISRDNAKSTLYLQMDSLRSEDTATYYCARQSDGTYYYWGYFDYWGQGVMVTVSS VL: DIVMTQSPSSLAVSAGETVTINCKSSQSLLFSGNQKNYLAWYQQKPGQSPKLLIYWASTRQSGVPDRFIGSGSGTDFTLTIRSVQAEDLAIYYCQQYYDSPYTFGAGTKLELK
2 | 0.115 | 0.321 | 0.052 | – | – | – | ChAb13-CZ (other, synthon CZ on reduced interchain Cys of the constant regions (sites not numbered)) VH: QVQLKESGPGLVQPSQTLSLTCTVSGFSLSSYGVIWVRQPPGKGLEWMGIIWANGNTNYNSALKSRLSISRDTSKSQVYLKMNSLQTEDTATYYCARHYYDGTHYYGYFDYWGQGVMVTVSS VL: DTVMTQTPSSQAVSAGEKVTMSCKSSQSLLYSENKKKYLAWYQQKPGQSPKLLIYWASTRESGVPDRFIGSGSGTDFTLTISSVQAEDLAVYYCQQYYNFPYTFGAGTKLELK

Further lines, the binder ahead of its results:

Row | Binder | ADC potency, IC50 (nM), H146 (SCLC) growth inhibition [1] [nM] | ADC potency, IC50 (nM), H2170 (NSCLC) growth inhibition [1] [nM] | ADC potency, IC50 (nM), MOLT4 (leukemia) growth inhibition [1] [nM] | ADC potency, IC50 (nM), EBC (NSCLC), growth inhibition (CellTiter-Glo) [2] [nM] | ADC potency, IC50 (nM), H2170 (NSCLC), growth inhibition (CellTiter-Glo) [2] [nM] | ADC potency, IC50 (nM), MOLT4 (leukemia), growth inhibition (CellTiter-Glo) [2] [nM]
3 | ChAb3-CZ-DAR2 (anti-CD98 chimeric chAb3 conjugated to Bcl-xL inhibitor synthon CZ, HIC-purified DAR2 species) (antibody, human IgG1, V domains shown, Bcl-xL inhibitor synthon CZ conjugated to cysteines of the TCEP-reduced antibody (Method H); positions not given; Bcl-xL inhibitor synthon CZ conjugated to cysteines of the TCEP-reduced antibody (Method H); DAR 2.0 by MS; positions not given) VH: EVKLVESGGGLVQPGNSLRLSCATSGFTFIDYYMSWVRQSPGKALEWLGFIRNKANGYTTEYSASVKGRFTISRDNSQSILYLQMDTLRAEDSATYYCTRDRPAWFVYWGQGTLVTVSA VL: DIVMSQSPSSLAVSVGEKVTMSCKSSQSLLYSSNQKNYLAWYQQKPGQSPKLLIYWASTRESGVPDRFTGSGSGTDFTLTFSSVRAEDLAVYYCQQYYSYPYTFGGGTKLEIK | – | – | – | 271 | 0.273 | 0.046
4 | ChAb3-CZ-Broad DAR (anti-CD98 chimeric chAb3 conjugated to Bcl-xL inhibitor synthon CZ, unfractionated, DAR 4.1) (antibody, human IgG1, V domains shown, Bcl-xL inhibitor synthon CZ conjugated to cysteines of the TCEP-reduced antibody (Method A); positions not given; Bcl-xL inhibitor synthon CZ conjugated to cysteines of the TCEP-reduced antibody (Method A); average DAR 4.1 by MS; positions not given) VH: EVKLVESGGGLVQPGNSLRLSCATSGFTFIDYYMSWVRQSPGKALEWLGFIRNKANGYTTEYSASVKGRFTISRDNSQSILYLQMDTLRAEDSATYYCTRDRPAWFVYWGQGTLVTVSA VL: DIVMSQSPSSLAVSVGEKVTMSCKSSQSLLYSSNQKNYLAWYQQKPGQSPKLLIYWASTRESGVPDRFTGSGSGTDFTLTFSSVRAEDLAVYYCQQYYSYPYTFGGGTKLEIK | – | – | – | 7.15 | 0.15 | 0.034
5 | ChAb3-CZ-DAR4 (anti-CD98 chimeric chAb3 conjugated to Bcl-xL inhibitor synthon CZ, HIC-purified DAR4 species) (antibody, human IgG1, V domains shown, Bcl-xL inhibitor synthon CZ conjugated to cysteines of the TCEP-reduced antibody (Method H); positions not given; Bcl-xL inhibitor synthon CZ conjugated to cysteines of the TCEP-reduced antibody (Method H); DAR 4.0 by MS; positions not given) VH: EVKLVESGGGLVQPGNSLRLSCATSGFTFIDYYMSWVRQSPGKALEWLGFIRNKANGYTTEYSASVKGRFTISRDNSQSILYLQMDTLRAEDSATYYCTRDRPAWFVYWGQGTLVTVSA VL: DIVMSQSPSSLAVSVGEKVTMSCKSSQSLLYSSNQKNYLAWYQQKPGQSPKLLIYWASTRESGVPDRFTGSGSGTDFTLTFSSVRAEDLAVYYCQQYYSYPYTFGGGTKLEIK | – | – | – | 10.4 | 0.225 | 0.021
